Data: IntAct's records for PubMed 15604664

B1: Floral homeotic protein … (Arabidopsis thaliana (Mouse-ear cress)), P48007 (parent)
chain: MGRGKIEIKRIENANNRVVTFSKRRNGLVKKAKEITVLCDAKVALIIFASNGKMIDYCCPSMDLGAMLDQYQKLSGKKLWDAKHENLSNEIDRIKKENDSLQLELRHLKGEDIQSLNLKNLMAVEHAIEHGLDKVRDHQMEILISKRRNEKMMAEEQRQLTFQLQQQEMAIASNARGMMMRDHDGQFGYRVQPIQPNLQEKIMSLVID
partner: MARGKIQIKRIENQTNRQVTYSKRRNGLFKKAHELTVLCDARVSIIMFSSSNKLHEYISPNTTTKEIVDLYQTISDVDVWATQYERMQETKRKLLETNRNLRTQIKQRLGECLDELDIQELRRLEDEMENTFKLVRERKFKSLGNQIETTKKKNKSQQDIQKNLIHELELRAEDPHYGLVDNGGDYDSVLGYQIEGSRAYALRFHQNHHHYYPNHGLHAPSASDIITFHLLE
B2: Developmental protein … 3 (Arabidopsis thaliana (Mouse-ear cress)), O22456 (parent)
chain: MGRGRVELKRIENKINRQVTFAKRRNGLLKKAYELSVLCDAEVALIIFSNRGKLYEFCSSSSMLRTLERYQKCNYGAPEPNVPSREALAVELSSQQEYLKLKERYDALQRTQRNLLGEDLGPLSTKELESLERQLDSSLKQIRALRTQFMLDQLNDLQSKERMLTETNKTLRLRLADGYQMPLQLNPNQEEVDHYGRHHHQQQQHSQAFFQPLECEPILQIGYQGQQDGMGAGPSVNNYMLGWLPYDTNSI
partner: B1 chain
B3: Floral homeotic protein … (Arabidopsis thaliana (Mouse-ear cress)), P48007 (parent)
chain: B1 chain

Variants of: B1
Settings: with ap3_arath AP3, P35632

Variant	effect of a mutation on the interaction
L160P	increasing interaction
G131P	decreasing interaction
G131V	decreasing interaction
I94T	decreasing interaction
L87P	decreasing interaction
N98D	decreasing interaction
L132P	decreasing interaction
V135A	decreasing interaction
I91T	decreasing interaction
G177P	increasing interaction
L101A	decreasing interaction
M153P	decreasing interaction
L121P	decreasing interaction
L121A	decreasing interaction
N149P	increasing interaction
S145P	decreasing interaction

Variant	effect of a mutation on the interaction
L143P	decreasing interaction
Q102P	decreasing interaction
V124D	decreasing interaction
L108S	decreasing interaction
I142P	decreasing interaction
A127P	decreasing interaction
L116R	decreasing interaction
L116P	decreasing interaction
I128T	decreasing interaction
L105H	decreasing interaction
L103P	decreasing interaction
A154P	decreasing interaction
Q167P	increasing interaction
G110A	decreasing interaction
G110P	decreasing interaction

Variants of: B2
Settings: with pist_arath PI, P48007

Variant	effect of a mutation on the interaction
R146E	decreasing interaction

Variants of: B3
Settings: with sep3_arath SEP3, O22456

Variant	effect of a mutation on the interaction
K151E	decreasing interaction
E129D	decreasing interaction
L143P	decreasing interaction
I142F	decreasing interaction
E141R;P193L	decreasing interaction
E129K;L132P	decreasing interaction
I128V	decreasing interaction
I128F	decreasing interaction
F162L;M203T	decreasing interaction
A154P;Q157E;F162L	decreasing interaction
R158Q;E168V	decreasing interaction
A127P	decreasing interaction
L164Q	decreasing interaction
P193L	decreasing interaction
